For data set [1], the system named is HCoV-OC43 virus. Format: cell-based. Conditions: OC43, HEK293T.
Data set [2] relates to HEK293T cells. The experiment in a line: Cytotoxicity of cationized RNase using HEK293T cells. It counts as cell-based, human. The procedure:
In this example, initially, the cytotoxicity of cationized RNase using HEK293T cells is tested. Next, the highest dose with more than 80% surviving cells is selected for an anti-viral test of a co-treatment of RNase/DNase complexed with a highly cationic molecule dendrimer (the generation 2 poly PAMAM dendrimer described above) to enhance the efficacy of ribonucleases as anti-virus (HCoV-NL63/OC43) agents.
In this set of exemplar experiments, the same methodology, including the cellular compositions, viral samples, and RNase/DNase formulations from Example 1 are utilized in the various experimental combinations shown in FIG. 21.

Data set [3] is described as follows: Aggregate net charge estimated from published data. It counts as physicochemical. Conditions: calculated estimates from published data. An excerpt:
To determine the resulting aggregate net charge of each mixture (mildly or highly) cationized RNase A may be fractionated according to net charge by cation-exchange chromatography. Based upon calculated estimates from published data, the aggregate net charge of the mildly cationized RNase obtained from the above methodology is approximately +11 to +13 and the aggregate net charge of the highly cationized RNase obtained from the above methodology is approximately +21 to +23.

Data set [4] has as its system OC43 virus. The data set is described as follows: RT-qPCR of cell culture medium for OC43 virus. Conditions: RNase 10 μg/mL, dendrimer 10 μM where present.
Protocol: To conduct the RT-qPCR testing, cell culture medium was collected at 3 and 5 days after virus infection with or without mild RNase plus dendrimer treatment for RT-qPCR test. RNA from the infection virus were used for reverse transcriptase (RT) to direct complimentary DNA (cDNA) synthesis. The resulting cDNA was used as templates for the RT-qPCR reaction with a SYBR RT-PCR Kit. Reaction conditions were: 30 minutes RT at 50° C., 15 minutes at 94° C. for inactivation of reverse transcriptase (RT), followed by 40 cycles of 95° C. for 15 seconds, 60° C. for 45 seconds. Finally, conditions of 65° C. for 5 seconds and 95° C. for 5 seconds were used.
Melting curve analysis was performed under the condition of 95° C. for 60 seconds, 40° C. for 60 seconds, 65° C. for 1 second, followed by a slow increase from 65° C. to 95° C. at a rate of 0.07° C. per second.
Note that the limit for this PCR reaction is between 10-100 particles, which is sufficient to detect if a well is infected or has virus present.
The conditions of data set [5]: cited from earlier work.
Data set [6] deals with HIV. As to conditions: published research; cited from earlier work.

Like-named read-outs stand apart in the source and are kept apart here.

B1: mildly cationized RNase: bovine pancreatic RNase A carboxyl groups amidated with ethylenediamine using 10 mg EDC; mixture of diversely modified proteins (protein, UniProt P61823 27-150, looked up)
Ribonuclease pancreatic: KETAAAKFERQHMDSSTSAASSSNYCNQMMKSRNLTKDRCKPVNTFVHESLADVQAVCSQKNVACKNGQTNCYQSYSTMSITDCRETGSSKYPNCAYKTTQANKHIIVACEGNPYVPVHFDASV
modifications: carboxyls amidated with ethylenediamine, mildly cationized
notes: bovine pancreatic RNase A carboxyl groups amidated with ethylenediamine using 10 mg EDC; mixture of diversely modified proteins
As for B1, the “effective reduction compared to the control group (TCID50)” value in data set [1] (7.5 μg/ml) was found to be 6.8 ×. In addition, the “concentration with survival of 80% of the control cells” value in data set [2] (FIG. 22) came to 10000 ng/mL. Also, the aggregate net charge entry in data set [3] was “+11 to +13”. Also, in data set [4] (3 days), the “virus detection in medium by RT-qPCR after 3 days” value is listed as “detected”. In addition, in data set [4] (5 days), the “virus detection in medium by RT-qPCR after 5 days” value is given as “detected”.

B2: highly cationized RNase: bovine pancreatic RNase A carboxyl groups amidated with ethylenediamine using EDC 80+80+40 mg; mixture of diversely modified proteins (protein, UniProt P61823 27-150, looked up)
Ribonuclease pancreatic: KETAAAKFERQHMDSSTSAASSSNYCNQMMKSRNLTKDRCKPVNTFVHESLADVQAVCSQKNVACKNGQTNCYQSYSTMSITDCRETGSSKYPNCAYKTTQANKHIIVACEGNPYVPVHFDASV
modifications: carboxyls amidated with ethylenediamine, highly cationized
notes: bovine pancreatic RNase A carboxyl groups amidated with ethylenediamine using EDC 80+80+40 mg; mixture of diversely modified proteins
With B2, the “effective reduction compared to the control group (TCID50)” value in data set [1] (highly cationized formulation) is “negligible”. In data set [2] (interpolation of experimental results), the “concentration with 80% survival of control cells, interpolated” value was in the range of 200 to 500 ng/mL. For the same molecule, the aggregate net charge result in data set [3] is recorded as “+21 to +23”.

B3: ranpiRNase: ribonuclease enzyme found in the oocytes of the northern leopard frog (rana pipiens) (protein, UniProt P22069 1-104, looked up)
Protein P-30: QDWLTFQKKHITNTRDVDCDNIMSTNLFHCKDKNTFIYSRPEPVKAICKGIIASKNVLTTSEFYLSDCNVTSRPCKYKLKKSTNKFCVTCENQAPVHFVGVGSC
Regarding B3, the “maximum tolerated dose (MTD)” value in data set [5] (intravenously weekly, patients with malignant mesothelioma) is reported as 960 mg/m2; in data set [5] (of skin area, phase one clinical study), 960 μg/m^2. For the same molecule, the “antiviral effect on HIV” value in data set [6] was “shown antiviral activity against HIV”.
